Assay results: publication PMC8743172 (Current Research in Structural Biology, 2021)
Where two headings read alike, the source gives them in different places. Each block holds one molecule with its values, some of them ahead of it. Square brackets hold non-standard residues; d marks the D form. Primed or numbered codes have the meaning given here. Ends that are not written are not given here. FITC′ = fluorescein isothiocyanate fluorescent label; TAMRA = tetramethylrhodamine fluorescent label; Cy5 = cyanine-5 fluorescent label; pS = N[C@@H](COP(=O)(O)O)C(=O)O

B1: FITC-labelled 13-mer Amot-p130 peptide (peptide)
peptide: {FITC′}-GHVRSL[pS]ERLMQM
modifications: also: phosphoserine at 175 (S5 or S7)
B2: 14-3-3η (natural protein, human, UniProt Q04917 1-246, looked up)
chain: MGDREQLLQRARLAEQAERYDDMASAMKAVTELNEPLSNEDRNLLSVAYKNVVGARRSSWRVISSIEQKTMADGNEKKLEKVKAYREKIEKELETVCNDVLSLLDKFLIKNCNDFQYESKVFYLKMKGDYYRYLAEVASGEKKNSVVEASEAAYKEAFEISKEQMQPTHPIRLGLALNFSVFYYEIQNAPEQACLLAKQAFDDAIAELDTLNEDSYKDSTLIMQLLRDNLTLWTSDQQDEEAGEGN

How the values were obtained:
[1] = tested on: apo 14-3-3; details: ref Andrei et al., 2018; cited from earlier work
[2] = molecular target: T1, 14-3-3β (human, UniProt P31946 1-246); assay: fluorescence polarisation
T1 sequence (looked up): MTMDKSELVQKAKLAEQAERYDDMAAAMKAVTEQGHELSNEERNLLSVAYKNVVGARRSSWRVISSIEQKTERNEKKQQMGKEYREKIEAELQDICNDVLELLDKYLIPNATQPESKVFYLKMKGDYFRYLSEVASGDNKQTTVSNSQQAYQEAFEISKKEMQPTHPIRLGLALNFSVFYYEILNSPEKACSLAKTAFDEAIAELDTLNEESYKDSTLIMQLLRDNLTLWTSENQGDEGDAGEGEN

[3] = molecular target: T2, 14-3-3ζ (human, UniProt P63104 1-245); assay: fluorescence polarisation
T2 sequence (looked up): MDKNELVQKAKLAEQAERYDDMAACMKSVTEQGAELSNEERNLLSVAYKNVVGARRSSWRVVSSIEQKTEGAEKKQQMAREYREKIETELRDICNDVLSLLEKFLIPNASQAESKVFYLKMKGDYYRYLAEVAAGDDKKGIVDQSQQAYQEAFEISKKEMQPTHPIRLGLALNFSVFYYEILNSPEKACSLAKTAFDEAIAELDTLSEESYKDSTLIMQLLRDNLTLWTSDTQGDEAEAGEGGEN

[4] = molecular target: T3, 14-3-3τ (human, UniProt P27348 1-245); assay: fluorescence polarisation
T3 sequence (looked up): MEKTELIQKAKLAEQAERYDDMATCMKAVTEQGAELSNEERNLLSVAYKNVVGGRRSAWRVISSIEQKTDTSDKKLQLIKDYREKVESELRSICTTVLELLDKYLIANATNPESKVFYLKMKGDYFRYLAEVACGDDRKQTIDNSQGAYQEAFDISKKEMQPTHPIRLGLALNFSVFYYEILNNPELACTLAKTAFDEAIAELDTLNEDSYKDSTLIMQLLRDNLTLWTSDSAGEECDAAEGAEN

[5] = molecular target: T4, 14-3-3ε (human, UniProt P62258 1-255); assay: fluorescence polarisation
T4 sequence (looked up): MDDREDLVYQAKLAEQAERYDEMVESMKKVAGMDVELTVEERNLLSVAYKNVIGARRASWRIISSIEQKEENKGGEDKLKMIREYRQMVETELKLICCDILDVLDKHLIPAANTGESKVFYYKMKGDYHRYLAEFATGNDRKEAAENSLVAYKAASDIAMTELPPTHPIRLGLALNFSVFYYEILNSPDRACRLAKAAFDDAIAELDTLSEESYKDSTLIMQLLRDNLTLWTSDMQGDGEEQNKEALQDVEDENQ

[6] = molecular target: T5, 14-3-3σΔC (C-terminally truncated after T231) (human, UniProt P31947 1-231); assay: crystal structure
T5 sequence (looked up): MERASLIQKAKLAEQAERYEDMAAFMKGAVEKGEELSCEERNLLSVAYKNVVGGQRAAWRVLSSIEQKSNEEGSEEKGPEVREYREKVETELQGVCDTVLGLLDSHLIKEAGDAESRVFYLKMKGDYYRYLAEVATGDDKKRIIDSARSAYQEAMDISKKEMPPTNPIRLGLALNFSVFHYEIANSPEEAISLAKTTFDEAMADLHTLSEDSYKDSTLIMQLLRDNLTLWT

[7] = molecular target: T6, Cy5 labelled 13-mer Amot-p130 peptide (also: phosphoserine at 175 (S5 or S7)); assay: MST
T6 peptide: Cy5-GHVRSL[pS]ERLMQM

[8] = molecular target: B1; assay: fluorescence polarisation
[9] = molecular target: B2; assay: fluorescence polarisation
[10] = molecular target: T5, 14-3-3σΔC (C-terminally truncated after …); assay: crystal structure; remark: listed apart in the source

Molecule: C=CC(C)(C)OC[C@H]1O[C@H](O[C@@H]2C3=C([C@H](C)CNC(C)=O)C[C@H](O)[C@]3(C)/C=C3/[C@@H](COC)CC[C@H]3[C@@H](C)[C@H]2O)[C@H](O)[C@@H](O)[C@@H]1O [FC-NAc]
affinity for the apo 14-3-3 [1]: higher affinity for the apo 14-3-3

Molecule: B1
binding result [2]: binds
binding result [3]: binds
binding result [4]: binds
binding result [5]: binds

Molecule: GHVRSL[pS]ERLMQMSLATSGV (not fully specified (C-terminus)) [20-mer Amot-p130 peptide (for crystallography)]
binding result [6]: binds

Molecule: B2
fold stabilisation with 1 mM fragment 09 or 22 against the DMSO control [7]: 2 fold
fold stabilisation with 1 mM fragment 09 or 22 against the DMSO control [8]: 2 fold

Further lines, results first:

binding result [9]: binds
Molecule: {TAMRA}-GHVRSL[pS]ERLMQM (also: phosphoserine at 175 (S5 or S7)) [TAMRA-labelled 13-mer Amot-p130 peptide]

binding result [10]: binds
Molecule: GHVRSL[pS]ERLMQM (not fully specified (C-terminus)) [13-mer Amot-p130 peptide (for crystallography)]
